# Test results: publication doi:10.1101/816264
# Target: mouse ASIC1a wild type (mouse) (UniProt Q6NXK8)
# UniProt Q6NXK8, sequence (Q6NXK8 whole entry): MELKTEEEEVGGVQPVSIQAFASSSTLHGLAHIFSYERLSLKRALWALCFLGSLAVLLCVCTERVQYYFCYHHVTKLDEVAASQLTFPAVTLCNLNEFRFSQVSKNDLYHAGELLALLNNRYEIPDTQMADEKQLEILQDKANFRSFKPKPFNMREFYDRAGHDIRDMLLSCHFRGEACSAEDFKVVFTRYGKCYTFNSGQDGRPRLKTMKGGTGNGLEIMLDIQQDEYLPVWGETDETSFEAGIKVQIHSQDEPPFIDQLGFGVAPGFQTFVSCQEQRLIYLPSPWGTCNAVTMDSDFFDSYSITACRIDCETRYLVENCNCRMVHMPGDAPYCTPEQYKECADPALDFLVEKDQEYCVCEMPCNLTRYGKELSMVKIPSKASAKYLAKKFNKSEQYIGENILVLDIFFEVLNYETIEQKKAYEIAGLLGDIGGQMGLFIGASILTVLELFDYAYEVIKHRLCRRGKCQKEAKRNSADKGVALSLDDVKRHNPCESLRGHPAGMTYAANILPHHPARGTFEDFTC
substance,measurement,value
BigDyn Arg9Ala (peptide),fold increase of the EC50 of current rescue against BigDyn (TEVC),> 50 fold
